Source: patent publication US20260191907A1 (INSTITUT CURIE, published 2026)

T1: Recombinant FGFR1 (G&P Biosciences) (UniProt P11362 22-376, limits assumed)
T1 construct: Immobilised on the SPR chip
T1 sequence (looked up): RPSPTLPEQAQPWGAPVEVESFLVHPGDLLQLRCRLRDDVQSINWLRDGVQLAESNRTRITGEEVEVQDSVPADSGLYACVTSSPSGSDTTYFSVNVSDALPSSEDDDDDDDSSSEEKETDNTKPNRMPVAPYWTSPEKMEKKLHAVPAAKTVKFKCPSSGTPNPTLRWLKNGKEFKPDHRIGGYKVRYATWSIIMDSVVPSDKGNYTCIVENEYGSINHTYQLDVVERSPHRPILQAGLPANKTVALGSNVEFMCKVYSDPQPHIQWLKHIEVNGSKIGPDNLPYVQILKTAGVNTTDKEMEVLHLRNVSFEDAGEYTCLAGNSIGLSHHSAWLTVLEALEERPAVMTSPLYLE

T2: Recombinant FGFR4 (G&P Biosciences) (human, UniProt P22455 22-369)
T2 construct: Bought protein; the SPR method says only 'Recombinant; also called rFGFR4; extracellular FGFR4
T2 sequence: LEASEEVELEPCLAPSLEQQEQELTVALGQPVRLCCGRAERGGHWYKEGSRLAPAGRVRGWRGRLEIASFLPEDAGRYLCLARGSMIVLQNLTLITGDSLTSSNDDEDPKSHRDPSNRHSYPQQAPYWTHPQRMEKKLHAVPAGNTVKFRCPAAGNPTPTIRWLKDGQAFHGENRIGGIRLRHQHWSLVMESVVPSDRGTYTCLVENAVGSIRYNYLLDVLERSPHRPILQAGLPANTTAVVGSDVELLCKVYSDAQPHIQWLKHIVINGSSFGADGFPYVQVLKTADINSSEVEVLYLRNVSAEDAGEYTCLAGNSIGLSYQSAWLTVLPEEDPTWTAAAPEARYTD

B1: A8 nanobody (anti-FGFR4 sdAb, NaLi-H1 library) (VHH)
VHH: EVQLQASGGGFVQPGGSLRLSCAASGRTYSRDTMGWFRQAPGKEREFVSAISSRHSHTTYYADSVKGRFTISRDNSKNTVYLQMNSLRAEDTATYYCAEWDVFDMHYALPPMWYWGQGTQVTVSS
notes: also called A8 sdAb; not shown: C-terminal Myc/6xHis-tag and an additional cysteine
B2: F8 nanobody (anti-FGFR4 sdAb, Gimli library) (VHH)
VHH: EVQLVESGGGLVQPGGSLRLSCAASGTGYALDDMGWVRQAPGKGLEWVSAISDDESMADYYADSVKGRFTISRDNSKNTVYLQMNSLRAEDTAVYYCASYKEYKYQSGHHYFAYRGQGTLVTVSS
notes: Recombinant nanobody of about 17 kDa; also called F8 sdAb; not shown: C-terminal Myc/6xHis-tag and an additional cysteine
B3: B5 nanobody (anti-FGFR4 sdAb, NaLi-H1 library) (VHH)
VHH: EVQLQASGGGFVQPGGSLRLSCAASGRTSWLTTMGWFRQAPGKEREFVSAISSFSSKQGYYADSVKGRFTISRDNSKNTVYLQMNSLRAEDTATYYCAYASYPRHQGNGRWKDFVEYWGQGTQVTVSS
notes: Recombinant nanobody of about 17 kDa; also called B5 sdAb; not shown: C-terminal Myc/6xHis-tag and an additional cysteine
B4: B1 nanobody (anti-FGFR4 sdAb, NaLi-H1 library) (VHH)
VHH: EVQLQASGGGFVQPGGSLRLSCAASGYTSRSSAMGWFRQAPGKEREFVSAISDLTGYPYYYADSVKGRFTISRDNSKNTVYLQMNSLRAEDTATYYCAAYQDDKWTYGSQHGKYWGQGTQVTVSS
notes: also called B1 sdAb; not shown: C-terminal Myc/6xHis-tag and an additional cysteine

Assays:
[1] = biological target: T1, Recombinant FGFR1 (G&P Biosciences); assay: SPR, FGFR1 immobilised, nanobody as analyte at five concentrations
Description: (§1) Single cycle kinetics analysis was performed with the BIAcore® T200 instrument (GE Healthcare) on CMD200M sensor chips (XanTec bioanalytics GmbH) activated with a mixture of 300 mM NHS (N-hydroxysuccinimide) and 50 mM EDC (N-ethyl-N′-(dimethylaminopropyl) carbodiimide). Recombinant FGFR1, FGFR2, FGFR3 and FGFR4 (G&P Biosciences) were immobilized on the activated biosensors (800 to 12′000 RU; 1 RU=1 pg/mm²) followed by a blocking step with 1M ethanolamine. One flow channel per chip was used as a reference to provide background corrections. The nanobodies were injected at 5 different concentrations followed by a dissociation phase. Koff-rates were determined from a final dissociation step after the last injection. The measurements with FGFR4 were performed for each nanobody on freshly immobilized protein due to strong binding and incomplete dissociation from the surface. Immobilization flow rate was 5 μl/min and binding studies were performed at 30 μl/min. Binding parameters were determined with the heterogeneous ligand model fit of the BIAevaluation software. The black curves represent the measured data and red curves show the performed fit analysis.
To determine the binding affinity of the nanobodies to FGFR4, we performed surface plasmon resonance (SPR) spectroscopy with recombinant FGFR4. As already mentioned above, FGFR1 and FGFR2 are expressed on Rh4-FR4ko cells and flow cytometry analysis indicated no binding of the nanobodies to the cells. To further confirm FGFR4-specificity, we included also affinity measurements with recombinant FGFR1, FGFR2 and FGFR3. Nanobodies A8, B1, B5, F8, and mCh were injected in five different concentrations on a FGFR coated chip. Except for the negative control mCh, calculated KD values for FGFR4 binding were in the nano- and picomolar range (FIG. 3; Table 2). Affinity parameters could not be fitted with a 1:1 binding model and best fits were obtained with the heterogeneous ligand model of the BIAevaluation software resulting in two KD values for each candidate.

[2] = biological target: T2, Recombinant FGFR4 (G&P Biosciences); assay: SPR (BIAcore T200), single cycle kinetics, FGFR4 amine-immobilised, nanobody as analyte, heterogeneous ligand model, component 1 (kon1)
Description: (§2) FIG. 3: Affinity determination of nanobodies to recombinant protein via surface plasmon resonance spectroscopy. Single cycle kinetics analysis was performed on immobilized FGFR4 through covalent amine binding on the dextran based sensor chip. The analytes A8, B1, B5, F8 and mCh were injected in 5 different concentrations followed by a dissociation phase. A final dissociation step was added after the last injection step to determine Koff rates for the KD calculations. The black curves represent the measured data and red curves show the fit analysis (heterogeneous ligand model) performed with the BIAevaluation software.
as §1
To determine the binding affinity of the nanobodies to FGFR4, we performed surface plasmon resonance (SPR) spectroscopy with recombinant FGFR4. As already mentioned above, FGFR1 and FGFR2 are expressed on Rh4-FR4ko cells and flow cytometry analysis indicated no binding of the nanobodies to the cells. To further confirm FGFR4-specificity, we included also affinity measurements with recombinant FGFR1, FGFR2 and FGFR3. Nanobodies A8, B1, B5, F8, and mCh were injected in five different concentrations on a FGFR coated chip.

[3] = biological target: T2, Recombinant FGFR4 (G&P Biosciences); assay: SPR (BIAcore T200), single cycle kinetics, FGFR4 amine-immobilised, nanobody as analyte, heterogeneous ligand model, component 1 (koff1)
Description: as §2, §1
To determine the binding affinity of the nanobodies to FGFR4, we performed surface plasmon resonance (SPR) spectroscopy with recombinant FGFR4. As already mentioned above, FGFR1 and FGFR2 are expressed on Rh4-FR4ko cells and flow cytometry analysis indicated no binding of the nanobodies to the cells. […]

| Binder | binding result [1] | kon [2] | koff [3] |
| --- | --- | --- | --- |
| B1 | no binding | 314000 M⁻¹ s⁻¹ |  |
| B2 | no binding | 54500 M⁻¹ s⁻¹ | 1.04e-06 s⁻¹ |
| B3 | no binding | 1.84e+06 M⁻¹ s⁻¹ | 0.000566 s⁻¹ |
| B4 | no binding | 1.11e+06 M⁻¹ s⁻¹ | 1.18e-06 s⁻¹ |
